Measured values from paper PMC9218434.

Molecular target: nucleosome core particle (NCP) of human histones H2A, H2B, H3.1 and H4 with the 145 base-pair Widom 601 DNA, P04908;P06899;P68431;P62805
Assay: electrophoretic mobility shift assay
Conditions: non-denaturing 4% polyacrylamide gel, SYBR Gold staining, n = 3, read off a plot

Substance | response (0.4 µM p300(BRPHΔAILZ), parent: est. 48) [%] | response (0.8 µM p300(BRPHΔAILZ), parent: est. 71) [%] | response (1.2 µM p300(BRPHΔAILZ), parent: est. 82) [%] | response (0.4 µM p300(BRPHΔAILZ), parent: est. 41) [%] | response (0.8 µM p300(BRPHΔAILZ), parent: est. 62) [%] | response (1.2 µM p300(BRPHΔAILZ), parent: est. 75) [%]
p300(BRPH_(ΔAIL)Z), catalytic core of human p300 (aa 1035-1720, Y1467F, autoinhibition loop replaced by a linker) (from UniProt Q09472) K1456A; K1459A; K1461A; R1462A | 2.5 | 6 | 8.5 | – | – | –
p300(BRPH_(ΔAIL)Z), catalytic core of human p300 (aa 1035-1720, Y1467F, autoinhibition loop replaced by a linker) (from UniProt Q09472) R1137A | – | – | – | 3.3 | 8 | 13
